Target: Recombinant human FGF2 (fibroblast growth factor-2), biotinylated (human)
Assay: AlphaScreen or HTRF

B1: mSDC1: commercial glycosylated, mammalian expressed recombinant mouse SDC1 ectodomain (domain or fragment)
chain: QIVAVNVPPEDQDGSGDDSDNFSGSGTGALPDTLSRQTPSTWKDVWLLTATPTAPEPTSSNTETAFTSVLPAGEKPEEGEPVLHVEAEPGFTARDKEKEVTTRPRETVQLPITQRASTVRVTTAQAAVTSHPHGGMQPGLHETSAPTAPGQPDHQPPRVEGGGTSVIKEVVEDGTANQLPAGEGSGEQDFTFETSGENTAVAAVEPGLRNQPPVDEGATGASQSLLDRKEVLG
modifications: native GAG chains from the mammalian host (CS predominant over HS by the paper's disaccharide analysis)
- EC50: 7 nM
